Test results reported in the supplement of paper PMC10126150.
± gives the standard deviation of the averaged measurements.

Test system: ATP
Test: switch fluorescence ratio, 500 uM ATP over buffer (Cy3 cluster intensity, sum of 5 cycles each) (fold (ratio)); higher = stronger signal-on switching upon ATP binding; sequences stand for … in TCGTCGGCAGCGTCAGATGTGTATAAGAGACAGTTTTTTTTTTTTTTTTTTTTTTTTT…TC
Conditions: aptamer strand: ATP DNA aptamer (quencher-CACCTGGGGGAGTATTGCGGAGGAAGG + anchor), 100 nM annealed; ATP concentration: 500 uM
How it was run: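 Clusters carrying Cy3-labelled switching strands on a modified Illumina MiSeq flow-cell were annealed to 100 nM quencher-labelled ATP aptamer and imaged in selection buffer. They were imaged again after 15 min with 500 uM ATP at 22 °C, over five buffer/ATP cycles with NaOH stripping and re-annealing in between. For each cluster, the fluorescence ratio is the summed Cy3 intensity of the target cycles divided by that of the buffer cycles, averaged per switch-domain sequence. Clusters outside 100-1000 RFU were left out.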
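Also: ATP exposure 15 min at 22 °C before imaging.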

| Sequence | switch fluorescence ratio |
| --- | --- |
| ATTCGTTTTG | 1.03 ± 0.017 |
| ATTCTCGTTA | 0.996 ± 0.0053 |
| ATTCTCTTAT | 1.02 ± 0.059 |
| ATTCTGGAAT | 1.02 ± 0.06 |
| ATTCTGGGGT | 1.04 ± 0.07 |
| ATTCTGTTAG | 0.993 ± 0.0092 |
| ATTCTTAGGG | 1.12 ± 0.27 |
| ATTCTTATTG | 0.9801 ± 0.0021 |
| ATTCTTCTTA | 1.028 ± 0.0033 |
| ATTCTTTACG | 1.03 ± 0.015 |
| ATTCTTTGGG | 1.01 ± 0.02 |
| ATTCTTTTTT | 0.997 ± 0.024 |
| ATTGAACAT | 0.984 ± 0.015 |
| ATTGAACGTT | 0.979 ± 0.015 |
| ATTGAAGCGG | 1.01 ± 0.05 |
| ATTGAATGTG | 0.973 ± 0.013 |
| ATTGAATTTG | 0.9999 ± 0.0013 |
| ATTGAGAAGT | 0.996 ± 0.031 |
| ATTGAGAATC | 0.962 ± 0.035 |
| ATTGAGATCG | 1.01 ± 0.033 |
| ATTGAGGGAG | 1 ± 0.024 |
| ATTGAGTGTT | 0.987 ± 0.034 |
| ATTGATGACT | 1.04 ± 0.027 |
| ATTGATGAGG | 0.972 ± 0.012 |
| ATTGATGGGG | 0.976 ± 0.042 |

| Sequence | switch fluorescence ratio |
| --- | --- |
| ATTGATTGTA | 0.995 ± 0.035 |
| ATTGCATAGG | 0.9951 ± 0.0021 |
| ATTGCCGGAG | 0.999 ± 0.037 |
| ATTGCGAGGC | 1.04 ± 0.029 |
| ATTGCGGCTA | 1.03 ± 0.033 |
| ATTGCGTGTA | 1.023 ± 0.0085 |
| ATTGCGTTGG | 0.996 ± 0.013 |
| ATTGCGTTTG | 1.01 ± 0.026 |
| ATTGCTAGGG | 1.03 ± 0.023 |
| ATTGCTGCGA | 1.006 ± 0.0075 |
| ATTGCTTACG | 1.14 ± 0.19 |
| ATTGGAATTA | 0.985 ± 0.047 |
| ATTGGAGGCA | 1.03 ± 0.03 |
| ATTGGAGTAG | 1.01 ± 0.014 |
| ATTGGATATT | 1.02 ± 0.015 |
| ATTGGCGCGG | 0.969 ± 0.012 |
| ATTGGCGTTT | 0.996 ± 0.049 |
| ATTGGGAAGA | 1.02 ± 0.028 |
| ATTGGGAATC | 0.9923 ± 0.0027 |
| ATTGGGAGGA | 1 ± 0.014 |
| ATTGGGAGGG | 1.022 ± 0.0026 |
| ATTGGGGAGG | 0.974 ± 0.012 |
| ATTGGGGATG | 0.9819 ± 0.0097 |
| ATTGGGGGAG | 0.987 ± 0.033 |
| ATTGGGGGGC | 1.01 ± 0.036 |

| Sequence | switch fluorescence ratio |
| --- | --- |
| ATTGGGGTAT | 1 ± 0.03 |
| ATTGGGTTGT | 0.973 ± 0.015 |
| ATTGGGTTTT | 0.999 ± 0.022 |
| ATTGGTAAGG | 0.995 ± 0.025 |
| ATTGGTATAT | 1.007 ± 0.0068 |
| ATTGGTATCT | 0.979 ± 0.014 |
| ATTGGTCATA | 1 ± 0.028 |
| ATTGGTGGTT | 1 ± 0.074 |
| ATTGGTTACG | 1.01 ± 0.028 |
| ATTGGTTTGG | 1.032 ± 0.01 |
| ATTGTAGGGT | 0.972 ± 0.021 |
| ATTGTATTG | 0.986 ± 0.014 |
| ATTGTATTGT | 0.987 ± 0.03 |
| ATTGTCGG | 0.972 ± 0.028 |
| ATTGTGCGGG | 1.01 ± 0.036 |
| ATTGTGCTGG | 0.983 ± 0.018 |
| ATTGTGGAGA | 1.03 ± 0.032 |
| ATTGTGGGAC | 0.996 ± 0.077 |
| ATTGTGGGCG | 0.952 ± 0.017 |
| ATTGTGGGCT | 0.967 ± 0.063 |
| ATTGTTACTG | 1.06 ± 0.021 |
| ATTGTTACTT | 1.02 ± 0.019 |
| ATTGTTAGGG | 0.985 ± 0.019 |
| ATTGTTATTT | 1.02 ± 0.018 |
| ATTGTTGTAG | 0.985 ± 0.00069 |

| Sequence | switch fluorescence ratio |
| --- | --- |
| ATTGTTTATT | 0.998 ± 0.012 |
| ATTGTTTGAG | 0.982 ± 0.0032 |
| ATTGTTTGTT | 1.01 ± 0.016 |
| ATTGTTTTGG | 0.981 ± 0.028 |
| ATTGTTTTTC | 1.04 ± 0.073 |
| ATTTAAAGAT | 0.987 ± 0.049 |
| ATTTAAAGGT | 0.964 ± 0.018 |
| ATTTAAGAGA | 1.01 ± 0.051 |
| ATTTAAGAGG | 1 ± 0.041 |
| ATTTAAGCTC | 0.987 ± 0.024 |
| ATTTAAGTGT | 1 ± 0.021 |
| ATTTAATTAA | 1.02 ± 0.056 |
| ATTTAATTGT | 0.986 ± 0.053 |
| ATTTACATAT | 1.03 ± 0.015 |
| ATTTACGGGG | 1.04 ± 0.0031 |
| ATTTACTCGT | 1.014 ± 0.0017 |
| ATTTAGAATG | 1.02 ± 0.011 |
| ATTTAGGTTA | 0.989 ± 0.021 |
| ATTTAGTTCG | 0.9606 ± 0.0073 |
| ATTTATAATT | 0.992 ± 0.028 |
| ATTTATAGGG | 0.982 ± 0.014 |
| ATTTATCGGG | 1 ± 0.027 |
| ATTTATGGAT | 1 ± 0.023 |
| ATTTATGGGG | 1 ± 0.032 |
| ATTTATTTTT | 1.011 ± 0.002 |

| Sequence | switch fluorescence ratio |
| --- | --- |
| ATTTCAAGTT | 0.966 ± 0.011 |
| ATTTCCGTTT | 0.984 ± 0.013 |
| ATTTCGGTGG | 1.06 ± 0.044 |
| ATTTCGTCGA | 0.991 ± 0.019 |
| ATTTCTAGAA | 1.02 ± 0.015 |
| ATTTCTAGGG | 1.027 ± 0.0041 |
| ATTTCTCGGT | 1.07 ± 0.066 |
| ATTTCTTGGT | 0.9751 ± 0.0083 |
| ATTTGAATTG | 1.02 ± 0.03 |
| ATTTGAGATT | 1 ± 0.018 |
| ATTTGAGCTA | 1.04 ± 0.023 |
| ATTTGAGGGA | 1.13 ± 0.2 |
| ATTTGATCGA | 1.02 ± 0.075 |
| ATTTGATTCG | 1.008 ± 0.0087 |
| ATTTGCAGGA | 0.992 ± 0.046 |
| ATTTGCAGTG | 0.994 ± 0.021 |
| ATTTGCTGTG | 0.9916 ± 0.0062 |
| ATTTGGACGA | 1 ± 0.03 |
| ATTTGGCATC | 1.41 ± 0.47 |
| ATTTGGCGCG | 0.964 ± 0.024 |
| ATTTGGCGTG | 1.01 ± 0.099 |
| ATTTGGGCAT | 0.994 ± 0.029 |
| ATTTGGGGAC | 0.98 ± 0.016 |
| ATTTGGGGAT | 1.02 ± 0.03 |
| ATTTGGGTAG | 1.01 ± 0.062 |

| Sequence | switch fluorescence ratio |
| --- | --- |
| ATTTGGTGAC | 0.9987 ± 0.0042 |
| ATTTGGTGCA | 1.01 ± 0.056 |
| ATTTGGTTA | 0.993 ± 0.035 |
| ATTTGTAAGT | 0.9587 ± 0.006 |
| ATTTGTTGCA | 1.0298 ± 0.00091 |
| ATTTGTTGCG | 0.999 ± 0.017 |
| ATTTTAAGCG | 1.01 ± 0.014 |
| ATTTTAAGTC | 0.987 ± 0.041 |
| ATTTTACGAT | 0.999 ± 0.049 |
| ATTTTAGTGT | 0.968 ± 0.029 |
| ATTTTATAAA | 0.986 ± 0.026 |
| ATTTTATTTG | 1.06 ± 0.056 |
| ATTTTCATTG | 0.9749 ± 0.0087 |
| ATTTTCCAGG | 1.49 ± 0.26 |
| ATTTTCTTTG | 0.9958 ± 0.0089 |
| ATTTTGCAAT | 1.27 ± 0.037 |
| ATTTTGCGAT | 1.01 ± 0.015 |
| ATTTTGCGTG | 0.98 ± 0.029 |
| ATTTTGCTAA | 0.996 ± 0.016 |
| ATTTTGCTCT | 1.02 ± 0.026 |
| ATTTTGGCGA | 1.02 ± 0.029 |
| ATTTTGGTTG | 1.01 ± 0.035 |
| ATTTTGTCGC | 0.992 ± 0.016 |
| ATTTTGTGTT | 0.988 ± 0.022 |
| ATTTTTAAGA | 1 ± 0.012 |

| Sequence | switch fluorescence ratio |
| --- | --- |
| ATTTTTATCC | 1.022 ± 0.0068 |
| ATTTTTGAGC | 1.04 ± 0.048 |
| ATTTTTGAGT | 1.02 ± 0.025 |
| ATTTTTGTGG | 0.974 ± 0.011 |
| ATTTTTGTTA | 0.986 ± 0.054 |
| ATTTTTTCAG | 1.03 ± 0.014 |
| ATTTTTTCCT | 1.03 ± 0.022 |
| ATTTTTTCGC | 0.995 ± 0.015 |
| ATTTTTTGAA | 0.997 ± 0.019 |
| ATTTTTTGG | 0.997 ± 0.017 |
| ATTTTTTTAT | 0.995 ± 0.017 |
| CAAAAAACGA | 0.999 ± 0.066 |
| CAAAAATTAT | 1.03 ± 0.044 |
| CAAAACTTGC | 1.18 ± 0.032 |
| CAAAAGGCAG | 0.984 ± 0.048 |
| CAAAAGGGAT | 1.03 ± 0.017 |
| CAAAAGGTTA | 0.996 ± 0.011 |
| CAAAAGTCGG | 1.02 ± 0.012 |
| CAAAAGTCTT | 1.02 ± 0.037 |
| CAAAATTAAA | 0.958 ± 0.044 |
| CAAAATTGGG | 0.956 ± 0.013 |
| CAAACAGGCA | 1.03 ± 0.041 |
| CAAACAGTCG | 1.01 ± 0.042 |
| CAAACTGTCA | 1.07 ± 0.06 |
| CAAAGATAAT | 1.01 ± 0.039 |

| Sequence | switch fluorescence ratio |
| --- | --- |
| CAAAGATGG | 0.947 ± 0.013 |
| CAAAGCTGGG | 1.05 ± 0.05 |
| CAAAGGGCAT | 1.02 ± 0.032 |
| CAAAGGGGGT | 1 ± 0.016 |
| CAAAGGTGCA | 1.09 ± 0.032 |
| CAAAGGTTGG | 1 ± 0.038 |
| CAAATAAGTC | 0.998 ± 0.013 |
| CAAATACGGT | 1.25 ± 0.25 |
| CAAATACTTG | 1.04 ± 0.019 |
| CAAATAGGCC | 1.002 ± 0.0014 |
| CAAATAGGGG | 0.971 ± 0.024 |
| CAAATATGAG | 0.972 ± 0.033 |
| CAAATGATGT | 1.01 ± 0.027 |
| CAAATGCCCG | 0.934 ± 0.055 |
| CAAATGGGCT | 0.975 ± 0.044 |
| CAAATGGGG | 0.9589 ± 0.006 |
| CAAATGGGGG | 0.985 ± 0.015 |
| CAAATGGTTC | 0.9582 ± 0.0043 |
| CAAATTAGGC | 1.06 ± 0.1 |
| CAAATTGGAC | 1.03 ± 0.0071 |
| CAAATTTTTT | 1.01 ± 0.02 |
| CAACAAGGGA | 1.04 ± 0.018 |
| CAACATGGGG | 0.9925 ± 0.0065 |
| CAACCCATCT | 0.992 ± 0.042 |
| CAACCGTGAG | 1.02 ± 0.017 |
